Literature values, collected in publication PMC10280637.

Molecular target: IL-17A (Homo sapiens) (UniProt Q16552)
Sequence (Q16552 24-155): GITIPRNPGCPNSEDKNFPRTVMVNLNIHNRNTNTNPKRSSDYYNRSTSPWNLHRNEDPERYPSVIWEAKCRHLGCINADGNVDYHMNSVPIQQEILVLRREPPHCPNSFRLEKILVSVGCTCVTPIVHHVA

Kd: 0.06 nM
Substance: Secukinumab
